In US20240083958A1, “G PROTEIN PEPTIDOMIMETICS” (VRIJE UNIVERSITEIT BRUSSEL, priority 2020, published 2024):
Bridge positions count the residues as written; N and C are the ends. Square brackets hold non-standard residues; d marks the D form. Primed or numbered codes have the meaning given here. Azk = residue with azidated side chain, clicked to Pra; Pra′ = residue with alkynyl side chain, clicked to Azk; Lys(N3) = [N-]=[N+]=NCCCC[C@H](N)C(=O)O; 1Nal = N[C@@H](Cc1cccc2ccccc12)C(=O)O; 2Nal = N[C@@H](Cc1ccc2ccccc2c1)C(=O)O; Aad = N[C@@H](CCCC(=O)O)C(=O)O; Cha = N[C@@H](CC1CCCCC1)C(=O)O; Pra = C#CC[C@H](N)C(=O)O

Biological target: human β2AR (human, UniProt P07550 2-365)
Experiment: cell-based or functional assay

Row | Binder | Shift (averaged)
1 | Ac-KFN[Pra′]CRD[Azk]IQRMHLRQYEIL-OH (triazole 4-8) [compound 48] | 8
2 | Ac-FN[Pra′]CRD[Azk]IQRMHLRQWELL-OH [compound 29] | 4
3 | Ac-KKKRDIIQR[Lys(N3)]HLR[Pra′]YE[Cha]L-OH (triazole 10-14) [compound 65] | 63
4 | Ac-FNDCRDIIQRMHLRQYEHL-OH [compound 71] | 1
5 | Ac-FN[Pra′]CRD[Azk]IQRMHLRQYQLL-OH (triazole 3-7) [compound 28] | 12
6 | Ac-KKKFN[Pra′]CRD[Azk]IQRMHLRQ[2Nal]ELL-OH (triazole 6-10) [compound 58] | 39
7 | Ac-FNDCRDIIQRMHLRQYEYL-OH [compound 70] | 2
8 | Ac-FN[Pra′]CRD[Azk]IQRMHLRQWELL-OH (triazole 3-7) [compound 30] | 9
9 | Ac-FN[Pra′]CRN[Azk]IQRMHLRQYELL-OH (triazole 3-7) [compound 38] | 7
10 | Ac-RDIIQR[Lys(N3)]HLR[Pra′]YE[Cha]L-OH (triazole 7-11) [compound 64] | 81
11 | Ac-NARRIFNDARDIIQRMHLRQYEWL-OH [compound 83] | 9
12 | Ac-KFN[Pra′]CRD[Azk]IQRMHLRQYDLL-OH (triazole 4-8) [compound 54] | 91
13 | Ac-NARRIFNDARDIIQRMHLRQYELL-OH [compound 81] | 8
14 | Ac-KKKFN[Pra]CRD[Lys(N3)]IQRMHLRQ[1Nal]ELL-OH (triazole 6-10) [compound 57] | 49
15 | Ac-FN[Pra′]CRD[Azk]IQRMHLRQYEIL-OH (triazole 3-7) [compound 32] | 2
16 | Ac-FN[Pra′]CRD[Azk]IQRMHLRQ[1Nal]ELL-OH (triazole 3-7) [compound 43] | 54
17 | Ac-FN[Pra′]CRD[Azk]IQRMHLRQYQLL-OH [compound 27] | 4
18 | Ac-KKKFN[Pra′]CRD[Azk]IQRMHLRQWELL-OH (triazole 6-10) [compound 56] | 53
19 | Ac-FNDARDIIQRMHLRQYELL-OH [compound 75] | 5
20 | Ac-KKKFN[Pra′]CRD[Azk]IQRMHLRQYDLL-OH (triazole 6-10) [compound 55] | 72
21 | Ac-FN[Pra′]CRD[Azk]IQRMHLRQYELI-OH (triazole 3-7) [compound 34] | 29
22 | Ac-KFN[Pra′]CRD[Azk]IQRMHLRQYELI-OH (triazole 4-8) [compound 46] | 51
23 | Ac-FN[Pra′]CRD[Azk]IQRMHLRQY[Aad]LL-OH (triazole 3-7) [compound 37] | 35
24 | Ac-FN[Pra′]CRD[Azk]IQRMHLRQYDLL-OH (triazole 3-7) [compound 39] | 52
25 | Ac-KKKFN[Pra′]CRD[Azk]IQRMHLRQYELI-OH (triazole 6-10) [compound 47] | 64
26 | Ac-FN[Pra′]CRD[Azk]IQRMHLRQYELL-NH2 (triazole 3-7) [compound 36] | 1
27 | Ac-KKKFN[Pra′]CRD[Azk]IQRMHLRQYEIL-OH (triazole 6-10) [compound 49] | 11
28 | Ac-KFN[Pra′]CRD[Azk]IQRMHLRQY[Aad]LL-OH (triazole 4-8) [compound 52] | 53
29 | Ac-KKKFN[Pra′]CRD[Azk]IQRMHLRQY[Aad]LL-OH (triazole 6-10) [compound 53] | 38
30 | Ac-FN[Azk]CRD[Pra′]IQRMHLRQYELL-OH (triazole 3-7) [compound 35] | 5
